Results published in patent US20260274955A1 (JANUX THERAPEUTICS, published 2026).

Columns and labels:
[1] = biological target: T1, Anti-CD28 Fab (SEQ ID NOs: 202, 203); assay: phage ELISA on captured Fab, wells pre-incubated with CD28 antigen (competitor: CD28);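 also: bound clonal phage detected with an HRP-linked anti-M13 antibody, compared against wells that received blocking buffer alone without CD28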
T1 construct: biotinylated and captured on neutravidin coated plates in the phage ELISA

[2] = biological target: T1, Anti-CD28 Fab (SEQ ID NOs: 202, 203); assay: phage ELISA on captured biotinylated Fab;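 also: wells preblocked with or without CD28 antigen, then clonal phage supernatant added briefly, washed, and bound phage read out by ELISA using HRP-linked anti-M13 antibody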

T1 sequence (VH, as listed by the source, chain 1 of 2): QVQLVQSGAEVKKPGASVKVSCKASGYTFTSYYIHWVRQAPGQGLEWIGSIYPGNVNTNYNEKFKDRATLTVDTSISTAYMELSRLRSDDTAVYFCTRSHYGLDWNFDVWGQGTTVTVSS
T1 sequence (VL, as listed by the source, chain 2 of 2): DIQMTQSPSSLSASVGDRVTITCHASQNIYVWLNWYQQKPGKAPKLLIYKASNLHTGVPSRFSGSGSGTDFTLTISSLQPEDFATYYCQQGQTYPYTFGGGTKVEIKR

B1: Phage-153 (peptide)
peptide: YCDGHLPEYLPKCL
For B1, the “Anti-CD28 Fab signal in the presence of CD28” value (shortened to “Anti-CD28 Fab signal … of CD28”) [1] was 0.09 and the “Anti-CD28 Fab signal” value [2] was 2.19.

B2: Phage-155 (peptide)
peptide: YCDGHLPEYLSKCL
With B2 the “Anti-CD28 Fab signal … of CD28” value [1] was 0.07 and the “Anti-CD28 Fab signal” value [2] was 2.19.

B3: Phage-163 (peptide)
peptide: YCEGHAEEYMQKCL
For B3, the “Anti-CD28 Fab signal … of CD28” value [1] was 0.06 and the “Anti-CD28 Fab signal” value [2] was 2.18.

B4: Phage-189 (peptide)
peptide: YCDGHIPIYMSKCL
For B4, the “Anti-CD28 Fab signal … of CD28” value [1] was 0.08 and the “Anti-CD28 Fab signal” value [2] was 2.13.

B5: Phage-260 (peptide)
peptide: YCDGHSPIYMSKCL
With B5 the “Anti-CD28 Fab signal … of CD28” value [1] was 0.09 and the “Anti-CD28 Fab signal” value [2] was 2.

B6: Phage-159 (peptide)
peptide: YCDGHLPEYIEKCL
B6 was tested, and the “Anti-CD28 Fab signal … of CD28” value [1] was 0.07 and the “Anti-CD28 Fab signal” value [2] was 2.19.

B7: Phage-183 (peptide)
peptide: YCDGHLGIYMWKCL
B7 was tested, and the “Anti-CD28 Fab signal … of CD28” value [1] was 0.08 and the “Anti-CD28 Fab signal” value [2] was 2.14.

B8: Phage-268 (peptide)
peptide: YCDGHLGIYMTKCL
For B8, the “Anti-CD28 Fab signal … of CD28” value [1] was 0.08 and the “Anti-CD28 Fab signal” value [2] was 1.98.

B9: Phage-194 (peptide)
peptide: YCDGHAPQYMLKCL
With B9 the “Anti-CD28 Fab signal … of CD28” value [1] was 0.09 and the “Anti-CD28 Fab signal” value [2] was 2.12.

B10: Phage-227 (peptide)
peptide: YCDGHAPQYMGKCL
B10 was tested, and the “Anti-CD28 Fab signal … of CD28” value [1] was 0.08 and the “Anti-CD28 Fab signal” value [2] was 2.06.

B11: Phage-292 (peptide)
peptide: YCDGHMPEYMEKCL
For B11, the “Anti-CD28 Fab signal … of CD28” value [1] was 0.09 and the “Anti-CD28 Fab signal” value [2] was 1.93.

B12: Phage-290 (peptide)
peptide: YCMGHAPEYMEKCL
With B12 the “Anti-CD28 Fab signal … of CD28” value [1] was 0.07 and the “Anti-CD28 Fab signal” value [2] was 1.93.

B13: Phage-199 (peptide)
peptide: YCDGHMPEYMLKCL
In the case of B13, the “Anti-CD28 Fab signal … of CD28” value [1] is reported as 0.09 and the “Anti-CD28 Fab signal” value [2] is reported as 2.11.

B14: Phage-191 (peptide)
peptide: YCAGHLPLYMEKCL
With B14 the “Anti-CD28 Fab signal … of CD28” value [1] was 0.06 and the “Anti-CD28 Fab signal” value [2] was 2.12.

B15: Phage-156 (peptide)
peptide: YCAGHLPEYFLKCL
With B15 the “Anti-CD28 Fab signal … of CD28” value [1] was 0.08 and the “Anti-CD28 Fab signal” value [2] was 2.19.

B16: Phage-160 (peptide)
peptide: YCDGHLPQYKAKCL
B16 was tested, and the “Anti-CD28 Fab signal … of CD28” value [1] was 0.09 and the “Anti-CD28 Fab signal” value [2] was 2.19.

B17: Phage-161 (peptide)
peptide: YCDGHAVEYMAKCL
For B17, the “Anti-CD28 Fab signal … of CD28” value [1] was 0.1 and the “Anti-CD28 Fab signal” value [2] was 2.18.

B18: Phage-212 (peptide)
peptide: YCMGHLPQYMEKCL
In the case of B18, the “Anti-CD28 Fab signal … of CD28” value [1] is reported as 0.08 and the “Anti-CD28 Fab signal” value [2] is reported as 2.08.

B19: Phage-267 (peptide)
peptide: YCVGHLPQYMEKCL
In the case of B19, the “Anti-CD28 Fab signal … of CD28” value [1] is reported as 0.08 and the “Anti-CD28 Fab signal” value [2] is reported as 1.98.

B20: Phage-166 (peptide)
peptide: YCMGHLPQYMQKCL
In the case of B20, the “Anti-CD28 Fab signal … of CD28” value [1] is reported as 0.11 and the “Anti-CD28 Fab signal” value [2] is reported as 2.18.

B21: Phage-185 (peptide)
peptide: YCDGHSDEYMAKCL
In the case of B21, the “Anti-CD28 Fab signal … of CD28” value [1] is reported as 0.07 and the “Anti-CD28 Fab signal” value [2] is reported as 2.14.

B22: Phage-184 (peptide)
peptide: YCEGHSAEYMAKCL
B22 was tested, and the “Anti-CD28 Fab signal … of CD28” value [1] was 0.06 and the “Anti-CD28 Fab signal” value [2] was 2.14.

B23: Phage-286 (peptide)
peptide: YCDGHASEYMWKCL
With B23 the “Anti-CD28 Fab signal … of CD28” value [1] was 0.06 and the “Anti-CD28 Fab signal” value [2] was 1.94.

B24: Phage-226 (peptide)
peptide: YCEGHSAEYMNKCL
For B24, the “Anti-CD28 Fab signal … of CD28” value [1] was 0.07 and the “Anti-CD28 Fab signal” value [2] was 2.06.

B25: Phage-237 (peptide)
peptide: YCDGHASEYMMKCL
With B25 the “Anti-CD28 Fab signal … of CD28” value [1] was 0.06 and the “Anti-CD28 Fab signal” value [2] was 2.05.

B26: Phage-295 (peptide)
peptide: YCEGHSMEYMAKCL
In the case of B26, the “Anti-CD28 Fab signal … of CD28” value [1] is reported as 0.07 and the “Anti-CD28 Fab signal” value [2] is reported as 1.92.

B27: Phage-244 (peptide)
peptide: YCDGHSSEYMWKCL
B27 was tested, and the “Anti-CD28 Fab signal … of CD28” value [1] was 0.06 and the “Anti-CD28 Fab signal” value [2] was 2.03.

B28: Phage-204 (peptide)
peptide: YCDGHSAEYMSKCL
In the case of B28, the “Anti-CD28 Fab signal … of CD28” value [1] is reported as 0.06 and the “Anti-CD28 Fab signal” value [2] is reported as 2.1.

B29: Phage-213 (peptide)
peptide: YCEGHSAEYMWKCL
With B29 the “Anti-CD28 Fab signal … of CD28” value [1] was 0.09 and the “Anti-CD28 Fab signal” value [2] was 2.08.

B30: Phage-192 (peptide)
peptide: YCDGHSAEYMMKCL
In the case of B30, the “Anti-CD28 Fab signal … of CD28” value [1] is reported as 0.08 and the “Anti-CD28 Fab signal” value [2] is reported as 2.12.

B31: Phage-245 (peptide)
peptide: YCSGHLPEYMSKCL
In the case of B31, the “Anti-CD28 Fab signal … of CD28” value [1] is reported as 0.09 and the “Anti-CD28 Fab signal” value [2] is reported as 2.03.

B32: Phage-210 (peptide)
peptide: YCSGHLPEYMEKCL
With B32 the “Anti-CD28 Fab signal … of CD28” value [1] was 0.09 and the “Anti-CD28 Fab signal” value [2] was 2.09.

B33: Phage-181 (peptide)
peptide: YCEGHLPEYMSKCL
For B33, the “Anti-CD28 Fab signal … of CD28” value [1] was 0.07 and the “Anti-CD28 Fab signal” value [2] was 2.15.

B34: Phage-186 (peptide)
peptide: YCEGHSLEYIGKCL
In the case of B34, the “Anti-CD28 Fab signal … of CD28” value [1] is reported as 0.06 and the “Anti-CD28 Fab signal” value [2] is reported as 2.14.

B35: Phage-187 (peptide)
peptide: YCDGHQPEYMAKCL
B35 was tested, and the “Anti-CD28 Fab signal … of CD28” value [1] was 0.07 and the “Anti-CD28 Fab signal” value [2] was 2.14.

B36: Phage-154 (peptide)
peptide: YCDGHMPEYIAKCL
For B36, the “Anti-CD28 Fab signal … of CD28” value [1] was 0.08 and the “Anti-CD28 Fab signal” value [2] was 2.19.

B37: Phage-219 (peptide)
peptide: YCAGHLPEYIDKCL
B37 was tested, and the “Anti-CD28 Fab signal … of CD28” value [1] was 0.08 and the “Anti-CD28 Fab signal” value [2] was 2.07.

B38: Phage-188 (peptide)
peptide: YCAGHLPEYISKCL
B38 was tested, and the “Anti-CD28 Fab signal … of CD28” value [1] was 0.08 and the “Anti-CD28 Fab signal” value [2] was 2.14.

B39: Phage-296 (peptide)
peptide: YCAGHMPEYIDKCL
B39 was tested, and the “Anti-CD28 Fab signal … of CD28” value [1] was 0.06 and the “Anti-CD28 Fab signal” value [2] was 1.92.

B40: Phage-182 (peptide)
peptide: YCAGHLPEYMQKCL
In the case of B40, the “Anti-CD28 Fab signal … of CD28” value [1] is reported as 0.09 and the “Anti-CD28 Fab signal” value [2] is reported as 2.15.

B41: Phage-165 (peptide)
peptide: YCDGHLEEYKQKCL
With B41 the “Anti-CD28 Fab signal … of CD28” value [1] was 0.08 and the “Anti-CD28 Fab signal” value [2] was 2.18.

B42: Phage-196 (peptide)
peptide: YCMGHSEEYMQKCL
B42 was tested, and the “Anti-CD28 Fab signal … of CD28” value [1] was 0.07 and the “Anti-CD28 Fab signal” value [2] was 2.11.

B43: Phage-294 (peptide)
peptide: YCDGHSPEYMTKCL
For B43, the “Anti-CD28 Fab signal … of CD28” value [1] was 0.07 and the “Anti-CD28 Fab signal” value [2] was 1.93.

B44: Phage-162 (peptide)
peptide: YCDGHSIEYRWKCL
For B44, the “Anti-CD28 Fab signal … of CD28” value [1] was 0.06 and the “Anti-CD28 Fab signal” value [2] was 2.18.

B45: Phage-164 (peptide)
peptide: YCDGHAPEYIYKCL
For B45, the “Anti-CD28 Fab signal … of CD28” value [1] was 0.06 and the “Anti-CD28 Fab signal” value [2] was 2.18.

B46: Phage-193 (peptide)
peptide: YCEGHLPQYIPKCL
With B46 the “Anti-CD28 Fab signal … of CD28” value [1] was 0.07 and the “Anti-CD28 Fab signal” value [2] was 2.12.

B47: Phage-167 (peptide)
peptide: YCDGHTQEYIAKCL
With B47 the “Anti-CD28 Fab signal … of CD28” value [1] was 0.06 and the “Anti-CD28 Fab signal” value [2] was 2.17.

B48: Phage-265 (peptide)
peptide: YCDGHSQEYIAKCL
In the case of B48, the “Anti-CD28 Fab signal … of CD28” value [1] is reported as 0.07 and the “Anti-CD28 Fab signal” value [2] is reported as 1.99.

B49: Phage-195 (peptide)
peptide: YCDGHLPVYMAKCL
For B49, the “Anti-CD28 Fab signal … of CD28” value [1] was 0.09 and the “Anti-CD28 Fab signal” value [2] was 2.11.

B50: Phage-222 (peptide)
peptide: YCDGHLPAYMAKCL
For B50, the “Anti-CD28 Fab signal … of CD28” value [1] was 0.12 and the “Anti-CD28 Fab signal” value [2] was 2.06.

B51: Phage-190 (peptide)
peptide: YCEGHLPQYLAKCL
B51 was tested, and the “Anti-CD28 Fab signal … of CD28” value [1] was 0.1 and the “Anti-CD28 Fab signal” value [2] was 2.12.

B52: Phage-200 (peptide)
peptide: YCSGHAPIYMAKCL
B52 was tested, and the “Anti-CD28 Fab signal … of CD28” value [1] was 0.07 and the “Anti-CD28 Fab signal” value [2] was 2.1.

B53: Phage-198 (peptide)
peptide: YCDGHLEEYMAKCL
With B53 the “Anti-CD28 Fab signal … of CD28” value [1] was 0.09 and the “Anti-CD28 Fab signal” value [2] was 2.11.

B54: Phage-157 (peptide)
peptide: YCDGHSPLYIWKCL
For B54, the “Anti-CD28 Fab signal … of CD28” value [1] was 0.09 and the “Anti-CD28 Fab signal” value [2] was 2.19.

B55: Phage-289 (peptide)
peptide: YCDGHSPDYIWKCL
With B55 the “Anti-CD28 Fab signal … of CD28” value [1] was 0.1 and the “Anti-CD28 Fab signal” value [2] was 1.93.
